Changes are numbered by the printed parent chain.

Conditions in all cases: protein: recombinant; tags: N-terminal His; chain copies: 2; label: 32P; blunt
The target in one series is T1, UvrA G502D (Escherichia coli, UniProt P0A698 1-940, G502D).
T1 sequence: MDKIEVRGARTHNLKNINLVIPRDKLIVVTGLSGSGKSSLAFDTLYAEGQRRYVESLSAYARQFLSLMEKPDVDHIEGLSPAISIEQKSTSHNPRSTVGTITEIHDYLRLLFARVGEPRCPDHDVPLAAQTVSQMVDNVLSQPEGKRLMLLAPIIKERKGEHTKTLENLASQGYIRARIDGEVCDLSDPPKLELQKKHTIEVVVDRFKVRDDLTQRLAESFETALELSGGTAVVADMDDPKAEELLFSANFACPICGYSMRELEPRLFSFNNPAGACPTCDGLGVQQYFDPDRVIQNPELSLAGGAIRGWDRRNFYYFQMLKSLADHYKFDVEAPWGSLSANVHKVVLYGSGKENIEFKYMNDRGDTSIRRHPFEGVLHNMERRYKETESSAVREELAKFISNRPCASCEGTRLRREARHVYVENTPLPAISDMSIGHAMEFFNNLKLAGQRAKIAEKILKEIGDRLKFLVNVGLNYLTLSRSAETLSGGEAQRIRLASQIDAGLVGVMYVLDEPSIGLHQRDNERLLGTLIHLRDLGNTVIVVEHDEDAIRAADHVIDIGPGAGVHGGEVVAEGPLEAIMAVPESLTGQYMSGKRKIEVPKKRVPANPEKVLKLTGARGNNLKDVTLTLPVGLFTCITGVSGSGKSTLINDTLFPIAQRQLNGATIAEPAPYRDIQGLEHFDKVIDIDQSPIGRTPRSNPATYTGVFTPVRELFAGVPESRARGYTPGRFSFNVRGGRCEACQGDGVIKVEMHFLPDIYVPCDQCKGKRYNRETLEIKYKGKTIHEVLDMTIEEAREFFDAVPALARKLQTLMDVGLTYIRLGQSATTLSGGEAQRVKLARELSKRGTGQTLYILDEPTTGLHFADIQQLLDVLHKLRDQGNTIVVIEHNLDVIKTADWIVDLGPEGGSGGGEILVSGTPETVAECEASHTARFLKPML
Nature of the series: EMSA; 2 mM ATP; binding detected at <300 nM UvrA; EMSA, 1 nM 32P-labeled 50 bp duplex, 2 mM ATP, 20 min at 37°C; buffer, salt and pH not given in the material. In general terms: Mobility shift assays separate free from complexed probe on a gel.

Another series addresses T2, UvrA K37A (Escherichia coli, UniProt P0A698 1-940, K37A).
T2 sequence: T1 sequence with K37A, D502G
The series is described as above.

For series [1], the target named is T3, UvrA R712A R722A R724A R730A (Escherichia coli, UniProt P0A698 1-940, R712A;R722A;R724A;R730A).
T3 sequence: T1 sequence with D502G, R712A, R722A, R724A, R730A
Put plainly: EMSA; 2 mM ATP; no binding detected at 800 nM UvrA; EMSA, 1 nM 32P-labeled 50 bp duplex, 2 mM ATP, 20 min at 37°C; buffer, salt and pH not given in the material.

Another series has as its target T4, UvrA WT (Escherichia coli, UniProt P0A698 1-940).
T4 sequence: T1 sequence with D502G
Put plainly: EMSA; 2 mM ATP; EMSA, 1 nM 32P-labeled 50 bp duplex, 2 mM ATP, 20 min at 37°C; buffer, salt and pH not given in the material.

B1: 50 bp duplex with single FldT adduct (dsDNA)
DNA 1: CTAGGATCGGATAGCGCATGACAGTGACTGGATCGACAGCGTCGTATGAG
DNA 2: CTCATACGACGCTGTCGATCCAGTCACTGTCATGCGCTATCCGATCCTAG
modifications: fluorescein-dT (FldT) at position 29 of strand 1
Take B1: the figures for the binding result (in the series with UvrA G502D; with UvrA K37A; in series [1]) were “binds”, “binds” and “no binding”, respectively. For the same molecule, the Kd (usually the concentration at which binding is half-saturated) with UvrA WT amounted to 5.6 ± 1 nM.

These data come from publication PMC3025350, “Regulation and Rate Enhancement during Transcription-Coupled DNA Repair”.
